Assays:
[1] = biological target: human wild type trypsinogen-1 (PRSS1 wt)
[2] = biological target: T1, supercharged variant of human trypsinogen-1 (PRSS1 sc)
T1 chain: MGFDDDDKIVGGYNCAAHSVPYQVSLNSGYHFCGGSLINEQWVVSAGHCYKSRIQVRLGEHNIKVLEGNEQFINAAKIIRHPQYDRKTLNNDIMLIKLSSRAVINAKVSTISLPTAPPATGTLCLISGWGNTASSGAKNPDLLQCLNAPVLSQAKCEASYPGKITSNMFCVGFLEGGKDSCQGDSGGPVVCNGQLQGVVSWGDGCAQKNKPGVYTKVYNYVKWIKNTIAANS

B1: human enteropeptidase light chain sc C112S (hEPI-sc-C112S) (protein)
chain: IVGGSDAKEGAWPWVVGLYYDDRLLCGASLVSSDWLVSAAHCVYGRNLEPSKWTAILGLHMKSNLTSPQTVPRLIDEIVINPHYNRRRKDNDIAMMHLEFKVNYTDYIQPISLPEENQVFPPGRNCSIAGWGTVVYQGTTADILQEADVPLLSNERCQQQMPEYNITENMICAGYEEGGIDSCQGDSGGPLMCQENNRWFLAGVTSFGYECALPNRPGVYARVSRFTEWIQSFLH
[1]
  activation of trypsinogen by enteropeptidase (trypsin activity on CBZ-GPR-pNA; fluorescence of FRET peptide 7): Both PRSS1 versions can be activated to similar levels
[2]
  activation of trypsinogen by enteropeptidase (trypsin activity on CBZ-GPR-pNA; fluorescence of FRET peptide 7): Both PRSS1 versions can be activated to similar levels, although PRSS1 sc shows a slightly slower activation profile
